Data on 1 molecule can be found in patent US9394371B2, “Antibody-mediated disruption of quorum sensing in bacteria” (The Scripps Research Institute, priority 2007, dated 2016).

One test has as its target AIP-1. Briefly: Competition ELISA (free native AIP against hapten-BSA coated plates). The class given is binding, S. aureus. The conditions noted are these: AP1 Sups; AP1-BSA coated plates; read-out: AIP1 wt.
For another test, the target named is AIP-2. Described as above. It counts as binding, S. aureus. Conditions: AP1 Sups; AP1-BSA coated plates; read-out: AIP2 wt.
The target in the next test is AIP-4. The description is as above. The class given is binding, S. aureus. The conditions noted are these: AP1 Sups; AP1-BSA coated plates; read-out: AIP4 wt. As to the method:
(§1) The optimal concentrations of the AP4-BSA conjugate as well as of each mAb were determined. 96 well ELISA plates were coated with the appropriate amount of AP4-BSA conjugate respectively. The plates were blocked with 4% skim milk, washed and mAbs were added at the predetermined optimal concentration. The plates were washed and free antigen, i.e. the native AIPs 1-4, was added to the wells in a concentration series starting at 100 μM. The plate was incubated for 1 hour at 37° C., thoroughly washed, and goat anti-mouse-horseradish peroxidase (HRP) conjugate (Pierce, Rockford, Ill.) was added. After an incubation period of 1 hour at RT, the plate was thoroughly washed again and the HRP substrate (TMB substrate kit; Pierce) was added, the reaction was allowed to develop for 15 minute and stopped by the addition of 2 M H2SO4. The absorbance at 450 nm was read and the values plotted using GraFit (Erithacus Software Ltd). The free antigen concentration at which the absorbance value is 50% of the maximum absorbance was considered the Kd of the antibody for its antigen.
as §1, with “For the competition ELISA analysis, the optimal concentrations” for “The optimal concentrations”, “of the AP1-BSA, AP3-BSA, or AP4-BSA conjugate,” for “of the AP4-BSA conjugate”, “or AP4-BSA conjugate, as well” for “the AP4-BSA conjugate as well”, “amount of AP1-BSA, AP3-BSA, or AP4-BSA conjugate” for “amount of AP4-BSA conjugate”, “blocked with 4 v % skim milk,” for “blocked with 4% skim milk,”, “for 15 minutes and stopped” for “for 15 minute and stopped”

Test [1] deals with S. aureus RN6390B. The class given is cell-based.
Test [2] concerns S. aureus RN6390B. Briefly: Static biofilm analysis (crystal violet). The class given is cell-based. Conditions: FIG. 10B.
Another test concerns S. aureus USA300. Nature of the test: Postexposure therapy of lethal systemic MRSA USA300 challenge. The conditions noted are these: 1 mg i.p. 2 hours after infection with at least 1×10^8 S. aureus USA300; n=6; FIG. 12. It counts as in vivo, C57BL/6 mice. As to the method: Mice were treated with AP1-15B4 (1 mg) or control IgG (1 mg) 2 hours after S. aureus injection (1-3×10^8 i.p.). The numbers in parenthesis show survivors per group, p=0.02; n=6 for each group.
C57BL/6 mice received 1 mg of AP1-15B4 (i.p.), isotype control IgG or PBS 2 hours after they had been infected with at least 1×10^8 S. aureus USA300, an agr I MRSA strain. See Diep et al., Lancet 2006, 367, (9512), 731-739. USA300 is in fact one of the most common community-acquired MRSA (CA-MRSA) strains and represents an increasing threat for civilians and military personnel. Hageman et al., Diagn Microbiol Infect Dis 2008; James et al., Arch Dis Child Fetal Neonatal Ed 2008, 93, (1), F40-4; Tenover et al., J Clin Microbiol 2006, 44, (1), 108-18; Beilman et al., Surg Infect (Larchmt) 2005, 6, (1), 87-92. […] In contrast, only two of the PBS treated control mice (2/6) and 2 of the control IgG treated mice (2/6) survived longer than 24 hours.

B1: AP1-15B4: murine anti-AIP1 monoclonal antibody; VH SEQ ID NO: 19, VL SEQ ID NO: 147 (antibody, V domains shown)
VH: EVHLVESGGDLVKPGGSLKLSCAASGFAFSDFAMSWVRQTPEKRLEWVAIIKSDDSYTYYPDSVRDRFTISRDNARNTLYLQMTSLRSEDTALYYCTKIYDAYFYAMDYWGQGTSVTVSS
VL: DIVRTQSPLSLSVSLGDQASISCRSSQSLLHSNGNTYLHWYLQKPGQSPKLLIYKVSNRFSGVPDRFSGSGSGTDFTLKISILEAEDLGIYFCSQSTHFPTFGGGTKLEIK
modifications: Murine
Turning to B1, the Kd at AIP-1 was roughly 0.8 µM; at AIP-2, greater than 100 µM; at AIP-4, greater than 100 µM. In addition, the “quorum sensing inhibition of group I strains (α-hemolysin expression)” value in the test on S. aureus RN6390B [1] is “efficiently inhibit quorum sensing”. In addition, the “quorum sensing inhibition, hemolysin expression” value in the test with S. aureus RN6390B [1] is reported as “most potent activity”. For the same molecule, in the test with S. aureus RN6390B [2], the static biofilm formation result is recorded as “increase in biofilm formation”. The “mice surviving through the 48-hour observation period” value in the test with S. aureus USA300 is given as 4 out of 6.
